In experiment [1] the target is T1, mPDGFR-β on NIH3T3 cells (mouse, UniProt P05622 32-1098).
T1 construct: whole, on cells; also called NIH3T3 cells expressing mPDGFR-β; PDGFR-β present on the cell surface
Put plainly: flow cytometry on NIH3T3 cells expressing mPDGFR-β, streptavidin-PE detection. Background: A flow cytometer gives signals particle by particle.
Protocol: The cells were treated with APC-anti human Cκ antibody and streptavidin-PE.
After washing, it was classified and analyzed with a FACS Canto II instrument (BD Biosciences, San Jose, Calif., USA). 10,000 cells were used for each measurement, and the results were analyzed by FlowJo (Tree Star, Ashland, Oreg., USA).

Experiment [2] addresses T2, Sus scrofa PDGFR-β-Fc chimera (Sus scrofa, UniProt Q6QNF3 33-530 (dog entry)).
T2 construct: also called Sus crowfa PDGFR-β; not shown: human Fc (hFc) and its junction to the receptor part
T2 chain: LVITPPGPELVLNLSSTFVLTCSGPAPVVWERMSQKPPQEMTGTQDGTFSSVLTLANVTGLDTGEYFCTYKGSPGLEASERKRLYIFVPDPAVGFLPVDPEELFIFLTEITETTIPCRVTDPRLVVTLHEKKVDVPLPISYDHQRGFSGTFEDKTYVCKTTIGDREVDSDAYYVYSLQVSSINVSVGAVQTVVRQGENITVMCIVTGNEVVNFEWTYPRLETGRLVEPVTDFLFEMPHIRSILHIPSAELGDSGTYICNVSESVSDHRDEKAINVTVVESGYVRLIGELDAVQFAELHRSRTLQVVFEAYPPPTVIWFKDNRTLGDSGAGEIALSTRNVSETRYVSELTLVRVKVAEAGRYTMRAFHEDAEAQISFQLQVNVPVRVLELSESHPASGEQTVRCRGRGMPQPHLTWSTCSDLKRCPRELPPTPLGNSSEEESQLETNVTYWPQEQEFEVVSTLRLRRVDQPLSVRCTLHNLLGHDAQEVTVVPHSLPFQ
The experiment in a line: cross-species ELISA on coated antigen, 100 nM bispecific, HRP-anti-human Cκ detection. Background: ELISA stands for enzyme-linked immunosorbent assay.

For experiment [3], the target named is T3, cynomolgus monkey PDGFR-β (Fc chimera) (cynomolgus monkey).
T3 construct: not shown: human Fc (hFc) and its junction to the receptor part
T3 chain: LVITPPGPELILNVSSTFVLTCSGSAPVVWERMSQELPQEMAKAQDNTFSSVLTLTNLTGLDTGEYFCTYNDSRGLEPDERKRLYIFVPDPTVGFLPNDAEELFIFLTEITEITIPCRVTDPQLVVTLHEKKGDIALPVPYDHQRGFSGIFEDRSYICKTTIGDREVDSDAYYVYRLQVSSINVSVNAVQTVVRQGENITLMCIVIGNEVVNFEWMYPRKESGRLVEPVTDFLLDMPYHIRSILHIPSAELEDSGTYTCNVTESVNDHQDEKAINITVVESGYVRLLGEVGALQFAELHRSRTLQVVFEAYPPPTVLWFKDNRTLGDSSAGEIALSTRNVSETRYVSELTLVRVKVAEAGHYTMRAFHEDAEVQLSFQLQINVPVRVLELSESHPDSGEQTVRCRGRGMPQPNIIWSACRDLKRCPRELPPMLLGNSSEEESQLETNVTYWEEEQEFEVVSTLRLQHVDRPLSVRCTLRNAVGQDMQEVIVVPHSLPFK
The description is as above.

For experiment [4], the target named is T1, mPDGFR-β on NIH3T3 cells. Put plainly: flow cytometry on NIH3T3 cells expressing mPDGFR-β, 100 nM, APC-anti human Cκ detection.
The target in experiment [5] is hPDGFR-β on human pericyte cells (human, UniProt P09619 33-1106). Put plainly: cell-based or functional assay.
hPDGFR-β on human pericyte cells, sequence (P09619 33-1106): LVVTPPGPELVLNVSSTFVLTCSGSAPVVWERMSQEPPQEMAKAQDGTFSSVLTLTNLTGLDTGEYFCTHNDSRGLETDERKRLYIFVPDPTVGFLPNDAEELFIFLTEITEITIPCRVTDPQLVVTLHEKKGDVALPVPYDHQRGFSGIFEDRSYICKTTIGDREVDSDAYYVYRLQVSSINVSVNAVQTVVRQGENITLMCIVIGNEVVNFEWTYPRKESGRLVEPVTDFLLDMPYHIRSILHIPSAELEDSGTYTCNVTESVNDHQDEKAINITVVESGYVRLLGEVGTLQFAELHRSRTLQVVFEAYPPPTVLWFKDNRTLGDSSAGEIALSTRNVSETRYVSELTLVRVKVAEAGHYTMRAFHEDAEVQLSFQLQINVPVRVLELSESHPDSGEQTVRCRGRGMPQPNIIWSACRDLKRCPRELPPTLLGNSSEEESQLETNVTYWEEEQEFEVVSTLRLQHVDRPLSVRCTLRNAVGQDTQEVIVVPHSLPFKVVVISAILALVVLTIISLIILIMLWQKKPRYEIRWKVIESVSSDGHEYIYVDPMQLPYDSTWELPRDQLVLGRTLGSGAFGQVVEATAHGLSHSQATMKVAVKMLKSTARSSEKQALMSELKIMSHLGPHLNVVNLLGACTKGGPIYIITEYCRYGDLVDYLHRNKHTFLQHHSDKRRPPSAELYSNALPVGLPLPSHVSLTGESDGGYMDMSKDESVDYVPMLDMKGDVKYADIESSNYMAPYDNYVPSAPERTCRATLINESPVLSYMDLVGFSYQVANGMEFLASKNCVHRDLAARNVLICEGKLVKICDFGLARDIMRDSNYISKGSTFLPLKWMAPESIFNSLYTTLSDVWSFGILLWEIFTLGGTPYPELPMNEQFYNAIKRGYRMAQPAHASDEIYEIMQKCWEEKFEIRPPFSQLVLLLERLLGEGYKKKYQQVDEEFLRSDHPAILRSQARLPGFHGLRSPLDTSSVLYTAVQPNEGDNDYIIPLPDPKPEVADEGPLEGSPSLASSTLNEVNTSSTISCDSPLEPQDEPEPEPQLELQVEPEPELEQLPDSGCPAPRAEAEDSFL

T1 sequence (P05622 32-1098): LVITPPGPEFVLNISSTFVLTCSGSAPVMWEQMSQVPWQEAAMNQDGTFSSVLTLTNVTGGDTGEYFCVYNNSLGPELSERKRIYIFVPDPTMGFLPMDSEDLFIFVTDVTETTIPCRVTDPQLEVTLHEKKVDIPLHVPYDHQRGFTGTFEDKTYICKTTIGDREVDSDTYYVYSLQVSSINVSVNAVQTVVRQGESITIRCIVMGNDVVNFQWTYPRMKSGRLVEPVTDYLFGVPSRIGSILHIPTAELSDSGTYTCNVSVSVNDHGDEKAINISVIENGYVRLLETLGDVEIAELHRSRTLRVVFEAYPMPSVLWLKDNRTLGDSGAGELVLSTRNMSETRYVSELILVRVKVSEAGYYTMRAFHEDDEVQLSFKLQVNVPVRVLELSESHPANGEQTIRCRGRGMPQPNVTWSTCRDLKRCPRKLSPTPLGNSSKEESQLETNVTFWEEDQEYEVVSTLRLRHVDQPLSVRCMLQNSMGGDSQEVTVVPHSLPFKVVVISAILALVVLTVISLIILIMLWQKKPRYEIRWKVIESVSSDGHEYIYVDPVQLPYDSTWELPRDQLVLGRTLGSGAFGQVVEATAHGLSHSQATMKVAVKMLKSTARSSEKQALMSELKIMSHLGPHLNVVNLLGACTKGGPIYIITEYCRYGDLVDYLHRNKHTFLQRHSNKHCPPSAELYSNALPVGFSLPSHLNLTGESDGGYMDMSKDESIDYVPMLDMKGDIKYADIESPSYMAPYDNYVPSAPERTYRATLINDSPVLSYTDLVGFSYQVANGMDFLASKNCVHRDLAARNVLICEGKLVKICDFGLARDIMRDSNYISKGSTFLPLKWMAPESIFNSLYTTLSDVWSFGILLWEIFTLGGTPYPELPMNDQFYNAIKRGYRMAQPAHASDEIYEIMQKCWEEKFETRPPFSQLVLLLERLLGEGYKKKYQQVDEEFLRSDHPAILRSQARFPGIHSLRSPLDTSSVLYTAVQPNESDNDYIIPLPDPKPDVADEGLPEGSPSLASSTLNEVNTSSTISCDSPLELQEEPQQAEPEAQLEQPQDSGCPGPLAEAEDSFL

B1: mPDGF-BB-biotin (ligand, mouse, UniProt P31240 82-190, looked up)
chain: SLGSLAAAEPAVIAECKTRTEVFQISRNLIDRTNANFLVWPPCVEVQRCSGCCNNRNVQCRASQVQMRPVQVRKIEIVRKKPIFKKATVTLEDHLACKCETIVTPRPVT
modifications: biotinylated (biotin-xx microscale protein labeling kit); sites not stated
notes: also called biotin-mPDGF-BB
With B1, in the experiment with mPDGFR-β on NIH3T3 cells [1], the binding result is recorded as “binds”.

B2: PRb-CN32 x cotinine scFv-Cκ-scFv fusion protein (bispecific antibody) (bispecific antibody)
chain: LTQPSSVSANLGETVKITCSGGSNAGSYYYGWYQQKSPGSAPVTVIYSNNQRPSDIPSRFSGSTSGSTSTLTITGVQVDDEAVYFCGSGDSSSIAAFGAGTTLTVLGQSSRSSGGGGSSGGGGSAVTLDESGGGLQTPRGTLSLVCKASGFTFSSFNMFWVRQAPGKGLEFVAGISTTGRYTGYGSAVQGRGTISRDNGQSTVRLQLNNLRAEDTGTYYCAKSAGSTYSYWDSDAGLIDAWGHGTEVIVSSTSGGGGSGGGGSGGGGSRTVAAPSVFIFPPSDEQLKSGTASVVCLLNNFYPREAKVQWKVDNALQSGNSQESVTEQDSKDSTYSLSSTLTLSKADYEKHKVYACEVTHQGLSLPVTKSFNRGESGGGGSGGGGSGGGGSDIQMTQSPSSLSASVGDRVTITCQSSQSPYSNEWLSWYQQKPGKAPKLLIYRISTLASGVPSRFSGSRSGTDFTLTISSLQPEDFATYYCAGGYNFGLFLFGQGTKVEIKGQSSRSSGGGGSSGGGGSEVQLVESGGGLVQPGGSLRLSCAASGHLRRRDWMNWVRQAPGKGLEWVAAIGRSGDTYYATWAKGRFTISADTSKNTAYLQMNSLRAEDTAVYYCSRIPYFGWNNGDIWGQGTLVTVSS
notes: also called PRb-32; PRb-CN32 bispecific scFv-Cκ-scFv
As to B2, the binding result (in experiment [2]; in experiment [3]; in the experiment with mPDGFR-β on NIH3T3 cells [4]) was “binds” in each case. The “IC50 (nM) of relative cell viability (cellular ATP), human pericyte cells, bispecific complexed with cot-duo, with hPDGF-BB” value in experiment [5] turned out to be 0.87 nM. The “IC50 (nM) of relative cell viability (cellular ATP), human pericyte cells, bispecific complexed with cot-duo, without hPDGF-BB” value in experiment [5] turned out to be 0.78 nM.

The values above are taken from patent publication US20210371536A1 (SEOUL NATIONAL UNIVERSITY R AND DB FOUNDATION, published 2021).
